To fix the notation:
B1: Cyclin B1 peptide from the tumor, SEQ ID NO: 1 (AGYLMELCV) (peptide)
peptide: AGYLMELCV
notes: Synthesized by F-moc chemistry, with leucine at positions 4 and 7; also called P1
B2: Cyclin B1 peptide from the tumor, SEQ ID NO: 4 (AGYLMELCC) (peptide)
peptide: AGYLMELCC
notes: also called P4
B3: Cyclin B1 peptide from the tumor, SEQ ID NO: 2 (AGYLMELCM) (peptide)
peptide: AGYLMELCM
notes: Synthesized by F-moc chemistry, with leucine at positions 4 and 7; also called P2
B4: Cyclin B1 peptide from the tumor, SEQ ID NO: 3 (AGYLMELCF) (peptide)
peptide: AGYLMELCF
notes: Synthesized by F-moc chemistry, with leucine at positions 4 and 7; also called P3
B5: Human cyclin B1 peptide from the database, SEQ ID NO: 7 (AKYLMELTM) (peptide)
peptide: AKYLMELTM
notes: also called HeLa-derived cyclin B1 peptide
B6: Human cyclin B1 peptide from the database, SEQ ID NO: 8 (AKYLMELTML) (peptide)
peptide: AKYLMELTML
notes: as for B5
B7: Cyclin B1 peptide from the tumor, SEQ ID NO: 5 (AGYLMELCMA) (peptide)
peptide: AGYLMELCMA
notes: Synthesized by F-moc chemistry, with leucine at positions 4 and 7
B8: Cyclin B1 peptide from the tumor, SEQ ID NO: 6 (AGYLMELCFA) (peptide)
peptide: AGYLMELCFA
notes: as for B7

The target of this experiment is T1, HLA-A2.1 molecules on T2 cells (human).
T1 construct: MHC class I molecule on the surface of T2 cells; also called HLA-A*0201
As to the kind of experiment: HLA class I stabilization assay on T2 cells, MA2.1 staining, flow cytometry. The protocol: HLA Class I stabilization assays. Peptide-induced stabilization of HLA-A2.1 molecules on T2 cells was done as previously described (Zeh et al., Hum. Immunol., 39(2), 79-86 (1994)). 2×10⁵ T2 cells were incubated with […] of the indicated synthetic peptides in […] human B2m (Calbiochem, La Jolla, Calif.) for 18-20 hours at room temperature. The cells were then stained with the HLA-A2.1-specific antibody, MA2.1, for 45 minutes, washed with FACS Buffer (PBS, 5% FBS, and 0.01% sodium azide), and stained with a secondary FITC-conjugated anti-IgG antibody (Biosource International, Camarillo, Calif.). The cells were fixed in 4% formaldehyde prior to flow cytometry analysis. The negative control consisted of T2 cells without peptide. The positive control consisted of T2 cells loaded with the Flu matrix peptide, […]. Flow cytometric analysis was done using a FACScan flow cytometer (Becton-Dickinson). Experimental results are depicted as X-Fold increase=(Mean Fluorescent Intensity of T2 cells loaded with peptide/Mean Fluorescent Intensity of T2 cells with no peptide).
On the technique in general: In flow cytometry, cells or beads pass a laser one at a time.
On to B1, for which the “HLA-A2.1 Binding (X-Fold increase of MFI)” value was 1.6 fold.

As for B2, the “HLA-A2.1 Binding (X-Fold increase of MFI)” value turned out to be 1.61 fold.

For the molecule B3, the “HLA-A2.1 Binding (X-Fold increase of MFI)” value was 1.48 fold.

For the molecule B4, the “HLA-A2.1 Binding (X-Fold increase of MFI)” value amounted to 1.42 fold.

In the case of B5, the “HLA-A2.1 Binding (X-Fold increase of MFI)” value amounted to 2.28 fold.

Consider B6, for which the “HLA-A2.1 Binding (X-Fold increase of MFI)” value was determined as 2.25 fold.

For the molecule B7, the “HLA-A2.1 Binding (X-Fold increase of MFI)” value came out at 1.58 fold.

Regarding B8, the “HLA-A2.1 Binding (X-Fold increase of MFI)” value was 2.08 fold.

Values taken from patent US20030143647A1 (UNIVERSITY OF PITTSBURGH OF THE COMMONWEALTH SYSTEM OF …, published 2003).
